Target: oxidized LDL (oxLDL) (UniProt P04114 28-4563, limits assumed, oxidized LDL; kind of oxidation of the preparation used in the assay not stated)
Test: cell-based or functional assay

Sequence of oxidized LDL (oxLDL) (P04114 28-4563 limits assumed): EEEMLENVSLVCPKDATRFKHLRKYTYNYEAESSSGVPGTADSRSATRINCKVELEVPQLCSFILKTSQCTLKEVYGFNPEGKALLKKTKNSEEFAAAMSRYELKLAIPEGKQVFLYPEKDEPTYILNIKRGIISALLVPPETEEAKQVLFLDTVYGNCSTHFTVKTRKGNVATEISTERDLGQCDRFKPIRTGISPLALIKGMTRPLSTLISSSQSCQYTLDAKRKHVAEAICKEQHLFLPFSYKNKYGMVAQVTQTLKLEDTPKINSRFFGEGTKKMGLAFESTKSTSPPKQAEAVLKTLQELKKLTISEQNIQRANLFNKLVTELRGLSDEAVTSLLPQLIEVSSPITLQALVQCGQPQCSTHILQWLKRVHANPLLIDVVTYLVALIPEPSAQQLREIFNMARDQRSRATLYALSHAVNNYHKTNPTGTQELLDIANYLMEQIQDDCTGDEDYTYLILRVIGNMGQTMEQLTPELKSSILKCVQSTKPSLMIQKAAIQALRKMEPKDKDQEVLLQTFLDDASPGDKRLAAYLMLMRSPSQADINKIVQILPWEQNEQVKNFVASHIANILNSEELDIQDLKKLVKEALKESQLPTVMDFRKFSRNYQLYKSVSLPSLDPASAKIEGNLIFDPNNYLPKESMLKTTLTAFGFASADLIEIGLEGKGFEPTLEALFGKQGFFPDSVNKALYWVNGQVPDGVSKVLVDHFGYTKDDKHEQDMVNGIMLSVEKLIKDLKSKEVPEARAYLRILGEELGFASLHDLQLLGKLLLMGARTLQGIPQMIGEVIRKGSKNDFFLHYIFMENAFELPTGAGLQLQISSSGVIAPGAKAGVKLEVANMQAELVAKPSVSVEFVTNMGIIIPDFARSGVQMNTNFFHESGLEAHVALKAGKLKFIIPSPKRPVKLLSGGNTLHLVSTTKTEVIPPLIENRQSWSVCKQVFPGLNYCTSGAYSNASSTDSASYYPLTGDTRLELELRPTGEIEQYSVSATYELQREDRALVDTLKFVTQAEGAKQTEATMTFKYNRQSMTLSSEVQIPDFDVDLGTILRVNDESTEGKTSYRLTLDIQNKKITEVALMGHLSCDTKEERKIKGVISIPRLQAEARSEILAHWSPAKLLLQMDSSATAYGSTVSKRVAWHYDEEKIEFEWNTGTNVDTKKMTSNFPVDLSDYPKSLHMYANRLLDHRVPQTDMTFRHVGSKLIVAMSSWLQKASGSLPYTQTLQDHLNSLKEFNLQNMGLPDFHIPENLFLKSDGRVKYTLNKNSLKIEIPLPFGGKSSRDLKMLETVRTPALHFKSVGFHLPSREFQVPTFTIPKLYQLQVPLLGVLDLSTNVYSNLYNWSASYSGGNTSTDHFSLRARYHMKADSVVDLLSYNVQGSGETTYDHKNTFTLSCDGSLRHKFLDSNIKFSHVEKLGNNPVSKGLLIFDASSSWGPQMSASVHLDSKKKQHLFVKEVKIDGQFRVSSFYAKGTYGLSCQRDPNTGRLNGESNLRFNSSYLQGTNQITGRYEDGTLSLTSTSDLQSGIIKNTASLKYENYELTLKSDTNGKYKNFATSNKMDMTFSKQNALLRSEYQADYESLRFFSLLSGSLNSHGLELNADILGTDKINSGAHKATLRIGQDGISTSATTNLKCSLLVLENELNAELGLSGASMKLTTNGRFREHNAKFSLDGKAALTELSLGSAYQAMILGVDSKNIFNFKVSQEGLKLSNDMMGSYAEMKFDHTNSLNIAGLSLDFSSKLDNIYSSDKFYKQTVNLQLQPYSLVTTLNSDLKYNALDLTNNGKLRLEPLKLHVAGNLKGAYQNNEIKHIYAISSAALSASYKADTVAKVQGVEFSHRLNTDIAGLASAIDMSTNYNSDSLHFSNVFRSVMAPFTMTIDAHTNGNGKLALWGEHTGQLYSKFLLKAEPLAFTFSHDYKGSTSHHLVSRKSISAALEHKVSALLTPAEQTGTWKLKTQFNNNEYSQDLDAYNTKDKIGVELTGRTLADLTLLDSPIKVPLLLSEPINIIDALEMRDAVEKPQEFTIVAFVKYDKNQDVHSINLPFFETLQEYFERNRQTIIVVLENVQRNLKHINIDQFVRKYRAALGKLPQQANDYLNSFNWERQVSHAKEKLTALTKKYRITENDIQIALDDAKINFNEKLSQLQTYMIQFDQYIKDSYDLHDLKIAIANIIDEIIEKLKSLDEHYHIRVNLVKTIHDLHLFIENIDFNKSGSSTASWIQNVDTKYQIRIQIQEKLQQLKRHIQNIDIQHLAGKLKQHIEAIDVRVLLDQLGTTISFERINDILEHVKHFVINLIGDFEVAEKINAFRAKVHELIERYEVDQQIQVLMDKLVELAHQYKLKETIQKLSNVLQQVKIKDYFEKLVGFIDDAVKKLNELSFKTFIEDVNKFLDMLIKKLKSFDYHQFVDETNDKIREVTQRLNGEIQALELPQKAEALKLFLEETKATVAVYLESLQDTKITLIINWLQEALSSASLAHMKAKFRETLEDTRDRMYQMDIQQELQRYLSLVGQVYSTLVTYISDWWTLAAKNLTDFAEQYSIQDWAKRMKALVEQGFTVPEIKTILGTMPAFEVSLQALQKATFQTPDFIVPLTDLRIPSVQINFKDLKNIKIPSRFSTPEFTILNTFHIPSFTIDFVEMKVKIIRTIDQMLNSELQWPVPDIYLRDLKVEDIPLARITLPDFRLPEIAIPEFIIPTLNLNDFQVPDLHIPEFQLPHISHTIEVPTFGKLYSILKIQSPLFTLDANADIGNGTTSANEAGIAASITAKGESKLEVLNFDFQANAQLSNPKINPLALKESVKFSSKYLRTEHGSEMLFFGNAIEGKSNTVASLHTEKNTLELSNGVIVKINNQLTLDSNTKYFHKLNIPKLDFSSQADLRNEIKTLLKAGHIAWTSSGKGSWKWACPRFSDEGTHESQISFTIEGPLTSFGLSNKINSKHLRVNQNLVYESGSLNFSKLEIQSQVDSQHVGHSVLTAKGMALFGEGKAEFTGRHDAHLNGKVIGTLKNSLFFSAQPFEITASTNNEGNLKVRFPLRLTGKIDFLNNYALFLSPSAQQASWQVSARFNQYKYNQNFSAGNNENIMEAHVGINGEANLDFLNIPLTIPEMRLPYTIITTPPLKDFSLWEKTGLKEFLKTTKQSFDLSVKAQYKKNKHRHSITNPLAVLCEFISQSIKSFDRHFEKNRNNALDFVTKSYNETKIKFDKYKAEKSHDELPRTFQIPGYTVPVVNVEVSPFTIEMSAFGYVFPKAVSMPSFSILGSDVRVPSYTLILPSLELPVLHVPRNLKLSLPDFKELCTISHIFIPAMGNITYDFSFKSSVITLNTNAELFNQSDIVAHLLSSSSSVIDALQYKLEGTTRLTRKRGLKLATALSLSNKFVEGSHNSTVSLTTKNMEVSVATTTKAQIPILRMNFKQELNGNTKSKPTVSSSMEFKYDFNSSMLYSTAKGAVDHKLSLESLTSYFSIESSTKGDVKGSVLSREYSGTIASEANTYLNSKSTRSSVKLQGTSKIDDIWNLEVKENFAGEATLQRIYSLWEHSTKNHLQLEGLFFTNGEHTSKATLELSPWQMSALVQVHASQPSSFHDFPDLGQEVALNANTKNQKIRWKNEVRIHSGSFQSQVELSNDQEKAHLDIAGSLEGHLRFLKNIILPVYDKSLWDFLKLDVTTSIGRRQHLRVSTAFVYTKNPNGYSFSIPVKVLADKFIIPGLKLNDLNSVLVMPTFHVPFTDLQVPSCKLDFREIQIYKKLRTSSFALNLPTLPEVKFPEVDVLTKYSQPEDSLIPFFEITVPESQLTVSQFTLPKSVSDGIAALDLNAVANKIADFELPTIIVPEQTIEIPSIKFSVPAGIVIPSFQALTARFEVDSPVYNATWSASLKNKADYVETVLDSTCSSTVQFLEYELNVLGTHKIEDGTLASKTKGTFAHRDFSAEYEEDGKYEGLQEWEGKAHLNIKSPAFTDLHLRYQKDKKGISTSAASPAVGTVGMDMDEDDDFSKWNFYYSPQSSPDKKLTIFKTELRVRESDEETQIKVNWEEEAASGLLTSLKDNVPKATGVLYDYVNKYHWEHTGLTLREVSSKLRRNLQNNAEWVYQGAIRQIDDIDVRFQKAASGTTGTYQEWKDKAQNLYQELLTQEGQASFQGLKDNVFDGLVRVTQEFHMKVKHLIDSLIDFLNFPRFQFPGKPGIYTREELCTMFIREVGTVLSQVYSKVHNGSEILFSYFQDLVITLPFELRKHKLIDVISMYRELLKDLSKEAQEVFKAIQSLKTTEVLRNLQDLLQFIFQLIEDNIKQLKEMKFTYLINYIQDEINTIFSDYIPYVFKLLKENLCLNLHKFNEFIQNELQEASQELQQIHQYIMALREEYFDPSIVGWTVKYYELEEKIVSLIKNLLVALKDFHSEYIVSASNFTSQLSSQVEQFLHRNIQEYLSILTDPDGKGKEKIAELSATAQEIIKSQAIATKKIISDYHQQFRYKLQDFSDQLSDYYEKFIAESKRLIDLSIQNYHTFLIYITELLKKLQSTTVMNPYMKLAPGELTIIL

IC50 for MCP-1 inhibition: ~10 nM
B1: orticumab (antibody, human IgG1, lambda, V domains shown)
VH: EVQLLESGGGLVQPGGSLRLSCAASGFTFSNAWMSWVRQAPGKGLEWVSSISVGGHRTYYADSVKGRSTISRDNSKNTLYLQMNSLRAEDTAVYYCARIRVGPSGGAFDYWGQGTLVTVSS
VL: QSVLTQPPSASGTPGQRVTISCSGSNTNIGKNYVSWYQQLPGTAPKLLIYANSNRPSGVPDRFSGSKSGTSASLAISGLRSEDEADYYCASWDASLNGWVFGGGTKLTVLG
